From publication PMC6722581 come the findings set out here.

Assay [1] has as its target head domain of measles virus hemagglutinin, Edmonston vaccine strain (measles virus, Edmonston strain) (UniProt P08362). The assay can be described thus: SPR. For orientation: Surface plasmon resonance follows binding to a sensor surface in real time, without labels.
Assay [2] concerns the target head domain of measles virus hemagglutinin, IC-B wild-type strain (measles virus, IC-B strain) (UniProt Q786F2). Description: SPR.
UniProt Q786F2, sequence (Q786F2 149-617): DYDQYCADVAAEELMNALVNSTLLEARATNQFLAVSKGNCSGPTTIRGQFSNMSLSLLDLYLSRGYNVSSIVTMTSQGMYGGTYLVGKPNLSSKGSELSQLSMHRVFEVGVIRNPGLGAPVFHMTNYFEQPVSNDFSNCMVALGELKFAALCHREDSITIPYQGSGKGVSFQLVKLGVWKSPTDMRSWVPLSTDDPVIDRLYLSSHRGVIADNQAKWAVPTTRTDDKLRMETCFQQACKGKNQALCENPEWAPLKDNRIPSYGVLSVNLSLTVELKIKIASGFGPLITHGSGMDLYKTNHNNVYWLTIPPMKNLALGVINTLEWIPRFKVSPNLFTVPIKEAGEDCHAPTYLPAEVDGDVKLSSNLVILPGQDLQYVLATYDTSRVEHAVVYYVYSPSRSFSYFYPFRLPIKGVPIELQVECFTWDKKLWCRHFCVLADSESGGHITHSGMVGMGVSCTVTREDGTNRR

UniProt P08362, sequence (P08362 149-617): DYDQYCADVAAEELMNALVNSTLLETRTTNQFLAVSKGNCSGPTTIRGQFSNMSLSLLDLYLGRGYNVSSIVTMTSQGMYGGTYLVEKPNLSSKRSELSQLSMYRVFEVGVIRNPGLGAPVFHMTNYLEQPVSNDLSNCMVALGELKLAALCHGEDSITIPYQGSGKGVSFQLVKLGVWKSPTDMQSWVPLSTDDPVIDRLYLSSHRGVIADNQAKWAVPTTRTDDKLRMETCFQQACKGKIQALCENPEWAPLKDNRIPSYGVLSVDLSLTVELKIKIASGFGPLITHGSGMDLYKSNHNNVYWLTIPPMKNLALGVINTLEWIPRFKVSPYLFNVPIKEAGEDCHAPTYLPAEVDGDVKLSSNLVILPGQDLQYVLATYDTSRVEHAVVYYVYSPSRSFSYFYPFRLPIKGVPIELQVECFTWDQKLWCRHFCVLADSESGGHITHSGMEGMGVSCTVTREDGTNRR

The term Kd denotes the equilibrium constant for the complex coming apart. A higher Kd goes with weaker binding. By koff is commonly meant a measure of how fast the partners let go of each other. The term kon denotes the second-order rate constant of association. In assay [1], “soluble human SLAM, chimeric protein of a human V-set with a mouse C2 domain (domain or fragment)” showed a Kd of 60.8 nM, a koff of 0.00291 s⁻¹ and a kon of 47900 M⁻¹ s⁻¹. In assay [2], this substance gave a Kd of 448 nM, a koff of 0.00637 s⁻¹ and a kon of 14100 M⁻¹ s⁻¹.
